US20170101466A1 (published 2017)

Experiments:
[1] = target: T1, soluble human BLyS (human, UniProt Q9Y275 134-285); assay: blocking of biotinylated soluble hBLyS binding to immobilized mBR3
T1 construct: also called hBLyS; human BAFF (BLyS)

[2] = target: T1, soluble human BLyS; assay: ELISA, soluble hBLyS
[3] = target: T2, soluble cynomolgus BLyS (cynomolgus, UniProt A0A2K5V2X4 134-285); assay: ELISA, soluble cyBLyS
T2 construct: Soluble form; also called cyBLyS; Soluble cyBLyS

[4] = target: T3, soluble mouse BLyS (mouse, UniProt Q9WU72 127-309); assay: ELISA, soluble mBLyS
T3 construct: europium-labelled in DELFIA; also called mBLyS; mouse BAFF (BLyS)

[5] = target: T3, soluble mouse BLyS; assay: Biacore
[6] = target: T1, soluble human BLyS; assay: Biacore
[7] = target: T3, soluble mouse BLyS; assay: DELFIA competition, Eu-mBLyS binding to coated BR3
Description: (§1) After 5× washing with 200 ul/well of DELFIA 1× wash solution (PE, Cat #4010-0010), plates were blocked with 3% BSA purified from trace heavy metal amounts (PE, Cat #CR84-100) for 3 hours with shaking at room temperature. Plates were washed again five times at 200 μl/well with DELFIA wash solution.
(§2) The final 3 wells across the plate served as controls (2 wells contained 2,000 pM mAbs for negative and background controls while the third contained no mAbs for positive control). […] After 18-24 hrs at 4° C., plates were read on PE EnVision plate reader with laser excitation, LANCE/DELFIA top mirror, and emission filter Eu-615 with a delay of 400 μs. Data were fit to four parameter (variable slope) inhibition dose response curve using GraphPad PRISM 5.0 software.

[8] = target: T1, soluble human BLyS; assay: DELFIA competition, Eu-hBLyS binding to coated BR3
Description: as §1, §2

[9] = target: T1, soluble human BLyS; assay: cell-based or functional assay
[10] = target: T3, soluble mouse BLyS; assay: Biacore, antibody captured on chip, BLyS injected, 1:1 model, 25 C
Description: (§3) Recombinant protein NG (Thermo Scientific, Cat #21186) was diluted to 100 μg/ml in 10 mM sodium acetate pH 4.0 and then immobilized on the surface of a pre-activated Series S CM5 Biacore chip (GE, Cat #BR-1005-34) using amine coupling. […] After the dissociation period, the chip was regenerated back to baseline by injecting 10 mM glycine pH 1.5 for 120 seconds over the four flow cells. […] The entire data set was fit to a 1:1 interaction model to give kₒₙ, koff, and Kd values. The assay was run at 25° C. in 1× biacore running buffer HBS-EP+ (GE, Cat #BR-1006-69).

[11] = target: T1, soluble human BLyS; assay: as above
Description: as §3

[12] = target: T3, soluble mouse BLyS; assay: DELFIA competition, Eu-mBLyS binding to coated BCMA
Description: as §1, §2

[13] = target: T1, soluble human BLyS; assay: DELFIA competition, Eu-hBLyS binding to coated BCMA
Description: as §1, §2

[14] = target: T3, soluble mouse BLyS; assay: DELFIA competition, Eu-mBLyS binding to coated TACI
Description: as §1, §2

[15] = target: T1, soluble human BLyS; assay: DELFIA competition, Eu-hBLyS binding to coated TACI
Description: as §1, §2

[16] = target: T4, mouse APRIL (mouse, UniProt Q9D777 96-241, limits assumed); assay: Biacore, antibody captured, APRIL injected
T4 construct: Bought recombinant protein; also called mAPRIL
T4 sequence (looked up): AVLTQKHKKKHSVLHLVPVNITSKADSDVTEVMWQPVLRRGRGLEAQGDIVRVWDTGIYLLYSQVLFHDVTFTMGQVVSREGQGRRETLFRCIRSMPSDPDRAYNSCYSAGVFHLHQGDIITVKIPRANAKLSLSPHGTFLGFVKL
Description: (§4) Recombinant protein NG (Thermo Scientific, Cat #21186) was diluted to 100 μg/ml in 10 mM Sodium Acetate pH 4.0 and then immobilized on the surface of a pre-activated Series S CM4 Biacore chip (GE, Cat #BR-1005-34) using amine coupling. […] Binding response was measured as the difference in total RU increase during 300 second APRIL injection of each individual flow cell and the reference flow cell (e.g., Flow cell 2-1).

[17] = target: T5, human APRIL (human, UniProt O75888 105-250, limits assumed); assay: Biacore, antibody captured, APRIL injected
T5 construct: Bought recombinant protein; also called hAPRIL
T5 sequence (looked up): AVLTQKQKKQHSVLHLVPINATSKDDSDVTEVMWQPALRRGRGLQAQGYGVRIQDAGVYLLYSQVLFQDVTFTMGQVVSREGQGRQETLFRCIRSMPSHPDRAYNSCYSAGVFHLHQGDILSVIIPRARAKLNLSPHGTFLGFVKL
Description: as §4

[18] = target: T3, soluble mouse BLyS; assay: Biacore T100, binder captured by anti-human Fc, BLyS injected, 1:1 model
Description: (§5) A Series S CM5 Chip (GE Healthcare) was amine coupled with an anti-human Fc capturing antibody (GE Healthcare Human Fc Kit) to >10,000 RUs. Sample antibodies were diluted in 1×HBS-EP+ running buffer to 0.15 ug/mL and injected for 45 seconds at 10 uL/min. […] Biacore Evaluation software was used to fit the data to a 1:1 Binding Model.

[19] = target: T1, soluble human BLyS; assay: as above
Description: as §5

[20] = target: T3, soluble mouse BLyS; assay: cell-based or functional assay

B1: 8A12 IgG expressed in HEK293 cells (antibody, V domains shown)
VH: QVQLVQSGGGLVQPGGSLRLSCAASGFTFSSYAMSWVRQAPGKGLEWVSAISGSGGSTYYADSVKGRFTISRDNSKNTLYLQMNSLRAEDTAVYYCAREGQGYDILTGYYTRGYYFDYWGQGTLVTVSS
VL: QSALTQPASVSGSPGQSITISCTGTSSDVGGYNYVSWYQQLPGKAPKLMIYEVSKRPSGVPDRFSGSKSGNTASLTISGLQAEDEADYYCSSYAGSSSWVFGGGTKLTVLG
notes: IgG from HEK293-FreeStyle cells
IC50 [1]: 2.97 nM | IC50 [2]: 16 nM | IC50 [3]: 0.32 nM | IC50 [4]: 0.05 nM | Kd [5]: 0.0224 nM | Kd [6]: 4.26 nM

B2: tabalumab (antibody, V domains shown)
VH: QVQLQQWGAGLLKPSETLSLTCAVYGGSFSGYYWSWIRQPPGKGLEWIGEINHSGSTNYNPSLKSRVTISVDTSKNQFSLKLSSVTAADTAVYYCARGYYDILTGYYYYFDYWGQGTLVTVSS
VL: EIVLTQSPATLSLSPGERATLSCRASQSVSRYLAWYQQKPGQAPRLLIYDASNRATGIPARFSGSGSGTDSTLTISSLEPEDFAVYYCQQRSNWPRTFGQGTKVEIKR
IC50 [7]: > 2 nM | IC50 [8]: 0.0899 nM | IC50 hBLyS stimulated, mouse splenic B-cell proliferation [9]: 4 ng/mL

B3: 6C10 IgG expressed in HEK293 cells (antibody, V domains shown)
VH: EVQLVQSGAEVKKPGASVKVSCKASGYTFTSYGISWVRQAPGQGLEWMGWISAYNGNTNYAQKLQGRVTMTTDTSTSTAYMELRSLRSDDTAVYYCARTYYDILTGYYYYYGMDVWGQGTTVTVSS
VL: EIVLTQSPGTLSLSPGERAMLSCRASQSVGNYLAWYQQKPGQAPRLLIYDASNRATGIPARFSGSGSGTDFTLTINSLEPEDFAVYYCQQRSNWPLTFGGGTKVEIKR
notes: IgG from HEK293-FreeStyle cells; also called 6C10 (293)
Kd [10]: 0.334 nM | koff [10]: 6.7e-05 s⁻¹ | kon [10]: 200000 M⁻¹ s⁻¹ | Kd [11]: 0.434 nM | koff [11]: 5e-05 s⁻¹ | kon [11]: 120000 M⁻¹ s⁻¹ | IC50 [12]: 0.098 nM | IC50 [13]: 0.0106 nM | IC50 [1]: 0.33 nM | IC50 [14]: 0.679 nM | IC50 [15]: 0.00067 nM | IC50 [2]: 0.12 nM | IC50 [7]: 0.784 nM | IC50 [8]: 0.121 nM | IC50 [3]: 0.1 nM | IC50 [4]: 0.05 nM | binding result [16]: no binding (tested: 50 nM) | binding result [17]: no binding (tested: 50 nM) | Kd [5]: 0.0216 nM | Kd [6]: 0.51 nM

B4: 5B7 IgG1 F243A/V264A double mutein expressed in Pichia pastoris (antibody, V domains shown)
VH: QVQLVQSGAEVKKPGASVKVSCKASGGTFSSYAISWVRQAPGQGLEWMGGIIPIFGTANYAQKFQGRVTITADKSTSTAYMELSSLRSEDTAVYYCARVDYDILTGYYMGYFDYWGQGTLVTVSS
VL: DIVMTQSPATLSLSPGERATLSCRASQSVSSYLAWYQQKPGQAPRLLIYDASNRATGIPARFSGSGSGTDFTLTISSLEPEDFAVYYCQQRSNWPITFGQGTRLEIKR
notes: IgG1 F243A/V264A (EU) double mutein, alpha-2,6-sialylated, from glycoengineered Pichia pastoris; also called 5B7-DM; 5B7-DM Pichia
Kd [10]: 0.065 nM | koff [10]: 4e-05 s⁻¹ | kon [10]: 620000 M⁻¹ s⁻¹ | Kd [11]: 0.179 nM | koff [11]: 3.5e-05 s⁻¹ | kon [11]: 190000 M⁻¹ s⁻¹ | IC50 [12]: < 0.0003 nM | IC50 [13]: 0.0016 nM | Kd [18]: 0.037 nM | koff [18]: 0.000102 s⁻¹ | kon [18]: 2.73e+06 M⁻¹ s⁻¹ | Kd [19]: 0.068 nM | koff [19]: 4.6e-05 s⁻¹ | kon [19]: 678000 M⁻¹ s⁻¹ | IC50 [14]: < 0.0003 nM | IC50 [15]: 0.00051 nM | IC50 [7]: 0.094 nM | IC50 [8]: 0.0377 nM | IC50 mBLyS stimulated, mouse splenic B-cell proliferation [20]: ≤ 1 ng/mL | IC50 hBLyS stimulated, mouse splenic B-cell proliferation [9]: ≤ 1 ng/mL | binding result [16]: no binding (tested: 50 nM) | binding result [17]: no binding (tested: 50 nM)

B5: 9F8 IgG expressed in HEK293 cells (antibody, V domains shown)
VH: QVQLQQSGAEVKKPGASVKVSCKASGYTFTSYYMHWVRQAPGQGLEWMGWINAGNGNTKYSQKFQGRVTITRDTSASTAYMELSSLRSEDTAVYYCARDNLSYDILTGYSFGGWFDPWGQGTLVTVSS
VL: QSALTQPASVSGSPGQSITISCTGTSSDIGRYNYVSWYQQRPGRAPKVIIYDVSSRPSGVSKRFSASKSGNTASLTISGLQAEDEAVYYCSSYTRITTLYVFGPGTKVTVLG
notes: as for B1
IC50 [1]: 5.31 nM | IC50 [2]: 0.15 nM | IC50 [3]: 0.07 nM | IC50 [4]: 0.07 nM | Kd [5]: 0.0456 nM | Kd [6]: 1.1 nM

B6: belimumab (antibody, V domains shown)
VH: QVQLQQSGAEVKKPGSSVRVSCKASGGTFNNNAINWVRQAPGQGLEWMGGIIPMFGTAKYSQNFQGRVAITADESTGTASMELSSLRSEDTAVYYCARSRDLLLFPHHALSPWGRGTMVTVSS
VL: SSELTQDPAVSVALGQTVRVTCQGDSLRSYYASWYQQKPGQAPVLVIYGKNNRPSGIPDRFSGSSSGNTASLTITGAQAEDEADYYCSSRDSSGNHWVFGGGTELTVLG
Kd [18]: 0.0635 nM | koff [18]: 0.000125 s⁻¹ | kon [18]: 1.98e+06 M⁻¹ s⁻¹ | Kd [19]: 0.167 nM | koff [19]: 8.55e-05 s⁻¹ | kon [19]: 506000 M⁻¹ s⁻¹ | IC50 [7]: > 2 nM | IC50 hBLyS stimulated, mouse splenic B-cell proliferation [9]: 18 ng/mL

B7: 8D12 IgG expressed in HEK293 cells (antibody, V domains shown)
VH: QVQLVQSGAEVKKPGASVKVSCKASGYTFTSYAMHWVRQAPGQRLEWMGWINAGNGNTKYSQKFQGRVTITRDTSASTAYMELSSLRSEDTAVYYCARAYYDILTGYSVYGMDVWGQGTTVTVSS
VL: EIVLTQSPATLSLSPGERATLSCRANESVGNYLAWYQQKPGQAPRLLIYGASRRATGIPDRFSGSGSGTDFTLTISRLEPEDFAVYYCQQYGSSLLTFGGGTKVEIKR
notes: IgG from HEK293-FreeStyle cells; also called 8D12 (293)
IC50 [12]: > 2 nM | IC50 [13]: 0.63 nM | IC50 [1]: 10 nM | IC50 [14]: > 2 nM | IC50 [15]: < 0.0003 nM | IC50 [2]: 0.13 nM | IC50 [7]: > 2 nM | IC50 [8]: 0.0622 nM | IC50 [3]: 0.08 nM | IC50 [4]: 0.16 nM | binding result [16]: no binding (tested: 50 nM) | binding result [17]: no binding (tested: 50 nM) | Kd [5]: 0.028 nM | Kd [6]: 0.66 nM
